The target of one series is T1, Fl-Imp3p;Rh-Imp4p (Saccharomyces cerevisiae;Saccharomyces …, UniProt P32899;P53941 1-183;1-290, |).
T1 sequence 1: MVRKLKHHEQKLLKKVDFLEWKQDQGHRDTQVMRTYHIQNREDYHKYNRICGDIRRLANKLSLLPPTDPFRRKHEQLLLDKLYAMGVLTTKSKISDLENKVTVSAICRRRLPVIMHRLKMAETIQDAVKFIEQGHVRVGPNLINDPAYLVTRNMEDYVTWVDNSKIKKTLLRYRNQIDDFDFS
T1 sequence 2: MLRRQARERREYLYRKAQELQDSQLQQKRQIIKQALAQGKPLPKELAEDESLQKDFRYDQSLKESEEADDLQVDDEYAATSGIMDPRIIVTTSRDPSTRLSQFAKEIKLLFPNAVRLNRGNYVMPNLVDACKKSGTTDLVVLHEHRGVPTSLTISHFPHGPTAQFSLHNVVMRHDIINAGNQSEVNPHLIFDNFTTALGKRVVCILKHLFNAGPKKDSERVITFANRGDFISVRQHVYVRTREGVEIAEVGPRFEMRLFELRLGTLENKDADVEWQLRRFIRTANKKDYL
Nature of the series: ssFRET.

The target in series [1] is T2, Imp3p;Imp4p (Saccharomyces cerevisiae;Saccharomyces …, UniProt P32899;P53941 1-183;1-290, |).
T2 sequence 1: T1 sequence 1
T2 sequence 2: T1 sequence 2
Description: trFRET.

The target in a further series is T3, Imp3p (Saccharomyces cerevisiae, UniProt P32899 1-183).
T3 sequence: T1 sequence 1
Description: trFRET.

Series [2] has as its target T2, Imp3p;Imp4p. Description: trFRET. The source holds these as a separate data set.

Where two headings read alike, the source gives them in different places.

As to GGACGUACUUCAUAGGAUCAUUUCUAUAGGAAUCGUCACUCUUUGACU (structured_RNA) [U3 MINI], in the series with Fl-Imp3p;Rh-Imp4p, the binding result is given as “binds”.

B1: Fl-U3 MINI-Rh with 18S (dsRNA)
RNA 1: GGACGUACUUCAUAGGAUCAUUUCUAUAGGAAUCGUCACUCUUUGACU
RNA 2: GGUUGAUCCUGCCAGUA
With B1, the binding result in the series with Imp3p;Imp4p [1] was “binds”.

In the case of GGACGUACUUCAUAGGAUCAUUUCUAUAGGAAUCGUCACUCUUUGACU (structured_RNA) [Fl-U3 MINI-Rh], the binding result with Imp3p and in the series with Imp3p;Imp4p [2] was “binds” in each case.

The values are drawn from PMC2881153.
